Results: publication PMC3539437, “Solution Structures of PPARγ2/RXRα Complexes” (PPAR Research, 2012)
Blank lines part the entries; values can stand above or below the binder they belong to.

Assays:
HsPPARγ LBD (203–477) = molecular target: T1, HsPPARγ LBD (203–477) (human, UniProt P37231-2 203-477); assay: co-purification (affinity chromatography, gel filtration); heterodimer partners coexpressed (E. coli BL21 (DE3) or Sf9) and copurified in two steps; conditions: partners not purified
T1 construct: Rosiglitazone was added in a 2-fold excess; also called PPAR LBD
T1 sequence (looked up): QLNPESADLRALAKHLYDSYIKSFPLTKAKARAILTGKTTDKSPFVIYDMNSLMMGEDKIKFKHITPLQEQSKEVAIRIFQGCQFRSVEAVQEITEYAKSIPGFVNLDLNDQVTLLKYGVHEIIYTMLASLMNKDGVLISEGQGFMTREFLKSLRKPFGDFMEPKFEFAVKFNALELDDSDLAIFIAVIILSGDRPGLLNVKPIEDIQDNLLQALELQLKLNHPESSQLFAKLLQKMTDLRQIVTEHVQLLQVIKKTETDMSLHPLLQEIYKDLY

[1] = molecular target: T2, PPARγΔNTD/RXRαΔNTD heterodimer (human, UniProt P37231 135-505; P19793 130-462); assay: AUC; sedimentation equilibrium at 12,000 rpm, fitted with Sedphat; TIF2 RID with PPARγΔNTD/RXRαΔNTD/DNA; conditions: both partners purified
T2 construct: PPARγ2 without its N-terminal domain, human, residues 135-505; Retinoid X receptor alpha without its N-terminal domain, human, residues 130-462; nontagged; also called PPARγ2ΔNTD/RXRαΔNTD; PPARγΔNTD/RXRΔNTD
T2 sequence (looked up) 1: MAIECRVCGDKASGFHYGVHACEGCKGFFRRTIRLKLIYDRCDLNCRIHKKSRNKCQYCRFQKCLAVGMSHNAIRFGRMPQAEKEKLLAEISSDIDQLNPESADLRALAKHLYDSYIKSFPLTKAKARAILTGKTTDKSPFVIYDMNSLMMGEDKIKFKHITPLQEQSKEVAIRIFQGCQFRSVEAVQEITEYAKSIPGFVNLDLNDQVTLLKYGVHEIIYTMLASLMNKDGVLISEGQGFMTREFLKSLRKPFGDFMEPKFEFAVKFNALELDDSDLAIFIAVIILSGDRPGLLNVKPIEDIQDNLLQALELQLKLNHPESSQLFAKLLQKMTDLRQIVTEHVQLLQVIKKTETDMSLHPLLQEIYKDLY
T2 sequence (looked up) 2: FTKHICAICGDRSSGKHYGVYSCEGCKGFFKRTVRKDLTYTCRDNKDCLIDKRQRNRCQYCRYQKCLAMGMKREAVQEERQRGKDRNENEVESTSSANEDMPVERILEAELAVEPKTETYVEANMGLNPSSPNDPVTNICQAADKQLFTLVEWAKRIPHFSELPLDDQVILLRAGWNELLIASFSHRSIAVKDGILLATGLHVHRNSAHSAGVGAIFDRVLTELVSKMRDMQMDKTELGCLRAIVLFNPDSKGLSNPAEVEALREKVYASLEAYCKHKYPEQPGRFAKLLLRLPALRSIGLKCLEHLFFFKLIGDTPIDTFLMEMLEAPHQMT

[2] = molecular target: T3, PPARγ/RXRα LBDs heterodimer (human, UniProt P37231-2 203-477; P19793 223-462); assay: native MS; ESI-MS under nondenaturing conditions, 200 mM ammonium acetate (pH 8.0 in the methods, pH 7.4 in the legend), capillary exit 80 V; conditions: both partners purified
T3 construct: nontagged; Ligands (CD3254 for RXR and rosiglitazone for PPAR) were added in a 2-fold excess; also called PPAR/RXR LBDs; LBD dimer
T3 sequence (looked up) 1: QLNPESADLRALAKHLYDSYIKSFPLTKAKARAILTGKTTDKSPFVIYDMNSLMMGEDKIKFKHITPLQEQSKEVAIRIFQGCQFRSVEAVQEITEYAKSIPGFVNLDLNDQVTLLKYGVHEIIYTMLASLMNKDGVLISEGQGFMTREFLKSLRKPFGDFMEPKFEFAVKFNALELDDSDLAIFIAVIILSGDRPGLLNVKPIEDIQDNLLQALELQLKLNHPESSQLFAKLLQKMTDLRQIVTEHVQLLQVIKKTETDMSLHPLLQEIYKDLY
T3 sequence (looked up) 2: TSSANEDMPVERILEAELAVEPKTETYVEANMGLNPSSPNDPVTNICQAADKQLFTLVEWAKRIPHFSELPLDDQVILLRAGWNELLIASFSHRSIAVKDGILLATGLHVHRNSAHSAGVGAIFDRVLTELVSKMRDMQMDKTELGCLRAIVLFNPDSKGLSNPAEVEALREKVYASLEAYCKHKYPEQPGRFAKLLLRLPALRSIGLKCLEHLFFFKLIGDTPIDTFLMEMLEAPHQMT

[3] = molecular target: T4, Full-length PPARγ2/RXRα heterodimer (human, UniProt P37231 1-505; P19793 1-462); assay: SAXS; complexes bound to Cyp4A1 PPRE DNA; Tris 20 mM pH 7.5, NaCl 75 mM, KCl 75 mM, MgSO4 4 mM, Glycerol 5%, Chaps 2 mM; ligands CD3254 and rosiglitazone; conditions: both partners purified
T4 construct: PPARγ2, human, residues 1-505; Retinoid X receptor alpha, human, residues 1-462; also called integral PPARγ/RXRα; full-length heterodimer
T4 sequence (looked up) 1: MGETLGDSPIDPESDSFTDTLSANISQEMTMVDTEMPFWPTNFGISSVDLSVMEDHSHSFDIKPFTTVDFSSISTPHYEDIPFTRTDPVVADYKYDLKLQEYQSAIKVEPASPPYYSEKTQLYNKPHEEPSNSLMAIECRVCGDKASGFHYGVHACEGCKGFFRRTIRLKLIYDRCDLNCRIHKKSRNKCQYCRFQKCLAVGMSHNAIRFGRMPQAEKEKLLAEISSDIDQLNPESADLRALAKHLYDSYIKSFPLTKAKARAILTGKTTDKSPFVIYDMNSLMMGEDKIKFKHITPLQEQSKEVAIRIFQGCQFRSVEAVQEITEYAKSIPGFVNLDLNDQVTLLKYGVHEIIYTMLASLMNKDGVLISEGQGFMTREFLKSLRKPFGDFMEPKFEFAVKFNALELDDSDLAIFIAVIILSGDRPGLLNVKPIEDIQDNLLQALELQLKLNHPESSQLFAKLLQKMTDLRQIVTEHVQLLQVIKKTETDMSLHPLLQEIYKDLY
T4 sequence (looked up) 2: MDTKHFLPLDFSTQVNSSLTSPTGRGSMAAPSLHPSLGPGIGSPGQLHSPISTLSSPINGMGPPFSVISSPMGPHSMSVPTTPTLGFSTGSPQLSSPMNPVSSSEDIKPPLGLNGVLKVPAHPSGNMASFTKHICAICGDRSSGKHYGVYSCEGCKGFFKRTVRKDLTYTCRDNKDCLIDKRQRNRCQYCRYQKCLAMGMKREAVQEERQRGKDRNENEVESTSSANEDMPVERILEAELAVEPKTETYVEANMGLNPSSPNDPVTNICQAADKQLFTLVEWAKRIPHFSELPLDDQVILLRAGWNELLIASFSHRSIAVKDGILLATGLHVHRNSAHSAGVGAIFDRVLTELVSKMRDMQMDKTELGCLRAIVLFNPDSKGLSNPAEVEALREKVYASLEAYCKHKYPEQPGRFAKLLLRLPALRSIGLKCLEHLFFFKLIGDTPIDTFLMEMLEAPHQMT

HsPPARγΔNTD (135–505) = molecular target: T5, HsPPARγΔNTD (135–505) (human, UniProt P37231 135-505); assay: co-purification (affinity chromatography, gel filtration); heterodimer partners coexpressed (E. coli BL21 (DE3) or Sf9) and copurified in two steps; conditions: partners not purified
T5 construct: PPARγ2 without its N-terminal domain, human, residues 135-505 (PPARγ2 has 505 residues); Rosiglitazone was added in a 2-fold excess; also called PPARγ2ΔNTD
T5 sequence (looked up): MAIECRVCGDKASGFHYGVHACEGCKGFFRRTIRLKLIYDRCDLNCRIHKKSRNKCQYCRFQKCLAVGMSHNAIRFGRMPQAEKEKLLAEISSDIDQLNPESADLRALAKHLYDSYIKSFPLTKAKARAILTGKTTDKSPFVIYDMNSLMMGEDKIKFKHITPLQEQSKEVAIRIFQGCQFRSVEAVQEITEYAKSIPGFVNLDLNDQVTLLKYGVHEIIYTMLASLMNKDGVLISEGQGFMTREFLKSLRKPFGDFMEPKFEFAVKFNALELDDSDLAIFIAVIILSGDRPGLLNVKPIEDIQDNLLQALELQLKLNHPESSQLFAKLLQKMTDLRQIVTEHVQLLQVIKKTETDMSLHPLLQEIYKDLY

[4] = molecular target: T6, Full-length HsPPARγ2 (1–505) (human, UniProt P37231-1 1-505); assay: SAXS; complexes bound to Cyp4A1 PPRE DNA; Tris 20 mM pH 7.5, NaCl 75 mM, KCl 75 mM, MgSO4 4 mM, Glycerol 5%, Chaps 2 mM; ligands CD3254 and rosiglitazone; conditions: both partners purified
T6 construct: PPARγ2, human, residues 1-505; Rosiglitazone was added in a 2-fold excess; also called PPARg2; full length PPARγ
T6 sequence (looked up): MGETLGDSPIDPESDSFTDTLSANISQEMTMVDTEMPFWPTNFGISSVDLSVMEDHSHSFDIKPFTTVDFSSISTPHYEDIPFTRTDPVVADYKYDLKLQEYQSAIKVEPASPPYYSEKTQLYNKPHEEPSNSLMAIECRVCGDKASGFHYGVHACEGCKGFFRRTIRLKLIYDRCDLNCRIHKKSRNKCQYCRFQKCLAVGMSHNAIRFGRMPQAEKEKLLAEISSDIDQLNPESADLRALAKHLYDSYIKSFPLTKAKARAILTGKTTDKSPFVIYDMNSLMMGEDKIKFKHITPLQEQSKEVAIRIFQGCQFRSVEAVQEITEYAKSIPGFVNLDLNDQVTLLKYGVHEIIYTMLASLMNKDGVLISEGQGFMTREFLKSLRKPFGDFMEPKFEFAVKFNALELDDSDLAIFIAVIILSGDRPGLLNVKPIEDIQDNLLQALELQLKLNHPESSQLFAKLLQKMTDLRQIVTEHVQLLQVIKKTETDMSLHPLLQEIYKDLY

- binding result (HsPPARγ LBD (203–477)): binds
B1: HsRXRα LBD (223–462) (domain or fragment, human, UniProt P19793 223-462, looked up)
chain: TSSANEDMPVERILEAELAVEPKTETYVEANMGLNPSSPNDPVTNICQAADKQLFTLVEWAKRIPHFSELPLDDQVILLRAGWNELLIASFSHRSIAVKDGILLATGLHVHRNSAHSAGVGAIFDRVLTELVSKMRDMQMDKTELGCLRAIVLFNPDSKGLSNPAEVEALREKVYASLEAYCKHKYPEQPGRFAKLLLRLPALRSIGLKCLEHLFFFKLIGDTPIDTFLMEMLEAPHQMT
notes: nontagged (pACYC plasmid); CD3254 was added in a 2-fold excess; also called RXR LBD

- stoichiometry N [1]: 1 TIF2 RID per heterodimer
- stoichiometry N [2]: 1 TIF2 RID per heterodimer
- stoichiometry N [3]: 1 coactivator per receptor dimer
B2: HsTIF-2 (632–772), TIF2 receptor interacting domain (RID) (domain or fragment, human, UniProt Q15596 632-772, looked up)
chain: LHDSKGQTKLLQLLTTKSDQMEPSPLASSLSDTNKDSTGSLPGSGSTHGTSLKEKHKILHRLLQDSSSPVDLAKLTAEATGKDLSQESSSTAPGSEVTIKQEPVSPKKKENALLRYLLDKDDTKDIGLPEITPKLERLDSK
notes: TIF2 (NCoA2, p160 member), human, residues 632-772: 15 kDa fragment with the three LXXLL motifs; also called TIF2 RID; TIF-2 RID

- binding result (HsPPARγΔNTD (135–505)): binds
- binding result [4]: binds
B3: HsRXRαΔNTD (130–462) (domain or fragment, human, UniProt P19793 130-462, looked up)
chain: FTKHICAICGDRSSGKHYGVYSCEGCKGFFKRTVRKDLTYTCRDNKDCLIDKRQRNRCQYCRYQKCLAMGMKREAVQEERQRGKDRNENEVESTSSANEDMPVERILEAELAVEPKTETYVEANMGLNPSSPNDPVTNICQAADKQLFTLVEWAKRIPHFSELPLDDQVILLRAGWNELLIASFSHRSIAVKDGILLATGLHVHRNSAHSAGVGAIFDRVLTELVSKMRDMQMDKTELGCLRAIVLFNPDSKGLSNPAEVEALREKVYASLEAYCKHKYPEQPGRFAKLLLRLPALRSIGLKCLEHLFFFKLIGDTPIDTFLMEMLEAPHQMT
notes: Retinoid X receptor alpha without its N-terminal domain, human, residues 130-462; nontagged (pACYC plasmid); CD3254 was added in a 2-fold excess; also called RXRΔNTD
